Laboratory results from patent publication US20230265208A1 (Dana-Farber, published 2023).

T1: MUC1-ECD (human, UniProt P15941 1098-1155)
T1 construct: also called Ag MUC1-ECD; Antigen MUC1-ECD
T1 sequence: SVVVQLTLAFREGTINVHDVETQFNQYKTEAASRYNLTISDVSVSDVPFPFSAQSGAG

T2: WT p58/p62 heterodimer (human, UniProt P15941 1036-1097, limits assumed)
T2 construct: domain: 62 amino acid region (p62) of the SEA domain; Construct limits and tags are not described; also called p62/p58 heterodimer; WT protein
T2 sequence 1: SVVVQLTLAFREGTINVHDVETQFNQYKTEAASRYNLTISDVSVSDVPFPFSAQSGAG
T2 sequence 2: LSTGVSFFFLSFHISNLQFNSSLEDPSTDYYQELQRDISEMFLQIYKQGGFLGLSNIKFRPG

B1: VH1 + VL4 (antibody, V domains shown)
VH: QVQLVQSGAEVKKPGSSVKVSCKASGYAFSNFWMNWVRQAPGQGLEWMGQIYPGDGDTNYNGKFKGRVTITADKSTSTAYMELSSLRSEDTAVYYCARSYYRSAWFAYWGQGTLVTVSS
VL: AIQLTQSPSSLSASVGDRVTITCRASQSIGTSIHWYQQKPGKAPKLLIYYASESISGVPSRFSGSGSGTDFTLTISSLQPEDFATYYCQQSNNWPLTFGGGTKVEIK
B2: VH5 + VL3 (antibody, human IgG1, kappa, V domains shown)
VH: EVQLVQSGAEVKKPGESLKISCKGSGFTFNYFWIEWVRQMPGKGLEWMGEILPGTGSTNYNEKFKGQVTISADKSISTAYLQWSSLKASDTAMYYCARYDYTSSMDYWGQGTLVTVSS
VL: EIVLTQSPATLSLSPGERATLSCRASESVQYSGTSLMHWYQQKPGQAPRLLIYGASNVETGIPARFSGSGSGTDFTLTISSLEPEDFAVYYCQQNWKVPWTFGQGTKVEIKR
notes: Full-length humanized IgG expressed in HEK293 and purified on protein A. Constant regions not specified; also called #23 (inferred from 5x5 numbering)
B3: GO-702m (antibody, V domains shown)
VH: QVQLQQSGAELMKPGASVKISCKAIGFTFNYFWIEWVKQRPGHGLEWIGEILPGTGSTNYNEKFKGKAIFTADTSSNTAYMQLRSLTSEDSAVYYCVRYDYTSSMDYWGQGTSVTVSS
VL: DIVLTQSPGSLAVSLGQSVTISCRASESVQYSGTSLMHWYQQKPGQPPKLLIYGASNVETGVPARFSGSGSGTDFSLNIHPVEEDDIAMYFCQQNWKVPWTFGGGTKLEIK
notes: Mouse monoclonal antibody, detected with anti-mouse IgG kappa
B4: GO-702h wild-type (antibody)
heavy: not shown
light: EIVLTQSPATLSLSPGERATLSCRASESVQYSGTSLMHWYQQKPGQAPRLLIYGASNVETGIPARFSGSGSGTDFTLTISSLEPEDFAVYYCQQNWKVPWTFGQGTKVEIKRTVAAPSVFIFPPSDEQLKSGTASVVCLLNNFYPREAKVQWKVDNALQSGNSQESVTEQDSKDSTYSLSSTLTLSKADYEKHKVYACEVTHQGLSSPVTKSFNRGEC
notes: copies: 2 + 2
B5: VH5 + VL2 (antibody, V domains shown)
VH: EVQLVQSGAEVKKPGESLKISCKGSGYAFSNFWMNWVRQMPGKGLEWMGQIYPGDGDTNYNGKFKGQVTISADKSISTAYLQWSSLKASDTAMYYCARSYYRSAWFAYWGQGTLVTVSL
VL: EIVMTQSPATLSVSPGERATLSCRASQSIGTSIHWYQQKPGQAPRLLIYYASESISGIPARFSGSGSGTEFTLTISSLQSEDFAVYYCQQSNNWPLTFGGGTKVEIK
B6: VH1 + VL3 (antibody, V domains shown)
VH: QVQLVQSGAEVKKPGSSVKVSCKASGYAFSNFWMNWVRQAPGQGLEWMGQIYPGDGDTNYNGKFKGRVTITADKSTSTAYMELSSLRSEDTAVYYCARSYYRSAWFAYWGQGTLVTVSS
VL: EIVLTQSPATLSLSPGERATLSCRASQSIGTSIHWYQQKPGQAPRLLIYYASESISGIPARFSGSGSGTDFTLTISSLEPEDFAVYYCQQSNNWPLTFGGGTKVEIK
B7: VH2 + VL3 (antibody, V domains shown)
VH: QVQLVQSGAEVKKPGASVKVSCKASGYAFSNFWMNWVRQAPGQGLEWMGQIYPGDGDTNYNGKFKGRVTMTRDTSTSTVYMELSSLRSEDTAVYYCARSYYRSAWFAYWGQGTLVTVSS
VL: EIVLTQSPATLSLSPGERATLSCRASQSIGTSIHWYQQKPGQAPRLLIYYASESISGIPARFSGSGSGTDFTLTISSLEPEDFAVYYCQQSNNWPLTFGGGTKVEIK

What was measured:
MUC1-ECD [1] = target: T1, MUC1-ECD; assay: SPR Biacore T200, antibody on chip, MUC1-ECD analyte, 1:1 fit
WT p58/p62 heterodimer = target: T2, WT p58/p62 heterodimer; assay: left panel, Absorbance against Concentration (nM). The panel does not name the target. The axis points to the ELISA on WT p58/p62 of the legend, while the legend's first sentence speaks of MFI on HCT116 cells.
MUC1-ECD [2] = target: T1, MUC1-ECD; assay: SPR (Biacore), 1:1 fit; panel 'GO-702h'; analyte cell empty, antigen at 1.875-60 nM by the legend; same numbers as Table 7 prints for VH5 + VL3

Row | Binder | Kd (MUC1-ECD [1]) [nM] | koff (MUC1-ECD [1]) [s⁻¹] | kon (MUC1-ECD [1]) [M⁻¹ s⁻¹] | EC50 (WT p58/p62 heterodimer) [nM] | Kd (MUC1-ECD [2]) [nM] | koff (MUC1-ECD [2]) [s⁻¹] | kon (MUC1-ECD [2]) [M⁻¹ s⁻¹]
1 | B1 | 7.13 | 0.00315 | 442000 |  |  |  | 
2 | B2 | 1.55 | 0.000844 | 545000 |  |  |  | 
3 | B3 |  |  |  | 0.6 |  |  | 
4 | B4 |  |  |  |  | 1.55 | 0.000844 | 545000
5 | B5 | 2.75 | 0.00125 | 455000 |  |  |  | 
6 | B6 | 5.23 | 0.00222 | 425000 |  |  |  | 
7 | B7 | 3.6 | 0.00145 | 404000 |  |  |  | 
